From article PMC6675082

Molecular target: NpDps4 (Dps4 from Nostoc punctiforme ATCC 29133) (Nostoc punctiforme ATCC 29133)
Assay: crystal structure; sitting-drop vapour diffusion, 25% SOKALAN HP 66, 0.1 M HEPES pH 7.0, 0.2 M NaOAc, room temperature; metal-free, Fe2+-soaked and Zn2+-soaked crystals; four molecules in the asymmetric unit, a third of the dodecameric hollow sphere

Substance: NpDps4 (Dps4 from Nostoc punctiforme ATCC 29133) (natural protein)
- stoichiometry N: 12
